Molecular target: recombinant CquiOBP1, odorant-binding protein from Culex pipiens quinquefasciatus (Culex pipiens quinquefasciatus)
Test: SEC; gel filtration of purified recombinant CquiOBP1 on Superdex-75 26/60, 150 mM NaCl, 20 mM Tris-HCl pH 8; monomer and dimer peaks isolated; the dimer slowly dissociates into monomer (1 hour at room temperature, overnight at 4°C)

**Q.** Which stoichiometry N does the source give for “recombinant CquiOBP1, odorant-binding protein from Culex pipiens quinquefasciatus (natural protein)” here?
**A.** 2

Reference: article PMC2516325
